The text below walks through data of patent publication US20150218240A1 (SAMSUNG ELECTRONICS, published 2015).

The target in the experiment is T1, Cdk6 (Abcam's ab84717, recombinant full length Human Cdk6 (amino acids 1-326) with N-terminal His tag) (human, UniProt Q00534 1-326).
T1 construct: range 1-326; Bought reagent (Abcam ab84717), coated on the ELISA plate at 1 ug/ml; also called CDk6 protein; not shown: N-terminal His tag of the bought protein
The experiment is described as follows: ELISA: Cdk6 coated on plate, p16 at 0-10 uM, detected with anti-p16 antibody and HRP secondary, A450. In general terms: In an ELISA, binding on a coated surface is turned into a signal by an enzyme label.

T1 sequence (Q00534 whole entry, the tested form may be a part): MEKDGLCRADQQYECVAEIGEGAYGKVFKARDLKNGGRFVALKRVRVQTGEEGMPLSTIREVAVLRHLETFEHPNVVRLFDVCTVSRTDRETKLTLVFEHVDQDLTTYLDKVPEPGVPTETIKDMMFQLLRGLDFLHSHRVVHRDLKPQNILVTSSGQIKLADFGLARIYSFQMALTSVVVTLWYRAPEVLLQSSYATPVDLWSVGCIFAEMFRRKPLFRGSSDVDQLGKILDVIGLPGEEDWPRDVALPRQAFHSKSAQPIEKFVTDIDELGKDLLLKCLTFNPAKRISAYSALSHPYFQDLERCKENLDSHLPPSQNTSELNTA

B1: human p16 protein variant (SEQ ID NO: 2; W15K, L37D, L65K, C72S, L78S, V106A, L113T) (other)
chain: MEPAAGSSMEPSADKLATAAARGRVEEVRALLEAGADPNAPNSYGRRPIQVMMMGSARVAELLLKHGAEPNSADPATSTRPVHDAAREGFLDTLVVLHRAGARLDARDAWGRTPVDLAEELGHRDVARYLRAAAGGTRGSNHARIDAAEGPSDIPD
notes: also called p16INK4a variant; mt p16
As to B1, the binding result is on record as “binds”.
